Assay results reported in the supplement of paper PMC9112550, “Optimization of the antimicrobial peptide Bac7 by deep mutational scanning” (BMC Biology, 2022).

Test system: Escherichia coli TOP10
Experiment: shrunken log2 fold change of peptide-encoding DNA abundance (4.5 h post-induction vs induction); higher = less antimicrobial activity (less host growth inhibition)
Conditions: time post-induction: 4.5 h; library: site-saturation at positions 5, 18, 19, 20
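Note: peptides expressed intracellularly from a pBAD plasmid library in pooled LB shake-flask culture, induced with 0.3% L-arabinose, DNA abundance read by NGS, three biological replicates, DESeq2 with apeglm shrinkage.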

| Sequence | shrunken log2 fold change |
| --- | --- |
| RRIRTRPPRLPRPRPRPCWFPRP | -0.21 |
| RRIRGRPPRLPRPRPRPCQQPRP | 0.0696 |
| RRIRHRPPRLPRPRPRPTLFPRP | 0.267 |
| RRIRERPPRLPRPRPRPRLRPRP | 0.25 |
| RRIRQRPPRLPRPRPRPPPKPRP | 0.876 |
| RRIRQRPPRLPRPRPRPLQPPRP | -0.0373 |
| RRIRIRPPRLPRPRPRPYAAPRP | -0.563 |
| RRIRSRPPRLPRPRPRPLFFPRP | -0.172 |
| RRIRARPPRLPRPRPRPEQWPRP | 0.0858 |
| RRIRDRPPRLPRPRPRPEVVPRP | -0.00213 |
| RRIRKRPPRLPRPRPRPPKDPRP | 0.498 |
| RRIRERPPRLPRPRPRPPDCPRP | 0.0792 |
| RRIRDRPPRLPRPRPRPRHKPRP | 0.227 |
| RRIRGRPPRLPRPRPRPPRMPRP | 0.608 |
| RRIRARPPRLPRPRPRPRIIPRP | 0.093 |
| RRIRHRPPRLPRPRPRPRMAPRP | 0.0651 |
| RRIRLRPPRLPRPRPRPMVNPRP | -0.0358 |
| RRIRPRPPRLPRPRPRPGTAPRP | 0.163 |
| RRIRYRPPRLPRPRPRPRACPRP | -0.143 |
| RRIRFRPPRLPRPRPRPQDHPRP | -0.391 |
| RRIRSRPPRLPRPRPRPFGIPRP | -0.172 |
| RRIRGRPPRLPRPRPRPTASPRP | 1.49 |
| RRIRRRPPRLPRPRPRPIYVPRP | -0.114 |
| RRIRHRPPRLPRPRPRPMRVPRP | -0.0146 |
| RRIRCRPPRLPRPRPRPPDIPRP | 0.409 |

| Sequence | shrunken log2 fold change |
| --- | --- |
| RRIRCRPPRLPRPRPRPWGCPRP | -0.00936 |
| RRIRPRPPRLPRPRPRPVVMPRP | -0.174 |
| RRIRDRPPRLPRPRPRPIVLPRP | -0.176 |
| RRIRYRPPRLPRPRPRPRKIPRP | -0.483 |
| RRIRTRPPRLPRPRPRPTPQPRP | 0.241 |
| RRIRVRPPRLPRPRPRPSLDPRP | -0.0324 |
| RRIRFRPPRLPRPRPRPGTPPRP | 0.292 |
| RRIRCRPPRLPRPRPRPIPFPRP | -0.436 |
| RRIRVRPPRLPRPRPRPDNYPRP | -0.222 |
| RRIRGRPPRLPRPRPRPSVQPRP | -0.0165 |
| RRIRKRPPRLPRPRPRPMQNPRP | 0.282 |
| RRIRLRPPRLPRPRPRPLYYPRP | -0.274 |
| RRIRERPPRLPRPRPRPRNDPRP | -0.478 |
| RRIRCRPPRLPRPRPRPENLPRP | -0.0208 |
| RRIRMRPPRLPRPRPRPFRHPRP | 0.0701 |
| RRIRIRPPRLPRPRPRPGYYPRP | -0.708 |
| RRIRNRPPRLPRPRPRPWSFPRP | -0.538 |
| RRIRMRPPRLPRPRPRPEYHPRP | -0.00495 |
| RRIRFRPPRLPRPRPRPQYRPRP | -0.171 |
| RRIRCRPPRLPRPRPRPSPQPRP | 0.445 |
| RRIRERPPRLPRPRPRPWVGPRP | 0.0249 |
| RRIRGRPPRLPRPRPRPPAYPRP | 0.532 |
| RRIRDRPPRLPRPRPRPHSSPRP | 0.217 |
| RRIRIRPPRLPRPRPRPTNPPRP | -0.454 |
| RRIRRRPPRLPRPRPRPPTQPRP | 0.678 |

| Sequence | shrunken log2 fold change |
| --- | --- |
| RRIRERPPRLPRPRPRPFTNPRP | -0.457 |
| RRIRKRPPRLPRPRPRPYTFPRP | -0.264 |
| RRIRHRPPRLPRPRPRPGPCPRP | -0.254 |
| RRIRKRPPRLPRPRPRPYTHPRP | -0.376 |
| RRIRVRPPRLPRPRPRPKMPPRP | -0.0804 |
| RRIRTRPPRLPRPRPRPQGCPRP | 0.0515 |
| RRIRHRPPRLPRPRPRPEWLPRP | 0.274 |
| RRIRFRPPRLPRPRPRPHLGPRP | 0.0424 |
| RRIRGRPPRLPRPRPRPMLDPRP | 0.485 |
| RRIRMRPPRLPRPRPRPCKIPRP | -0.0518 |
| RRIRQRPPRLPRPRPRPGQAPRP | 0.0026 |
| RRIRQRPPRLPRPRPRPGELPRP | -0.091 |
| RRIRCRPPRLPRPRPRPVYAPRP | -0.515 |
| RRIRGRPPRLPRPRPRPRCAPRP | 1.09 |
| RRIRARPPRLPRPRPRPNDFPRP | -0.214 |
| RRIRKRPPRLPRPRPRPEKCPRP | 0.0317 |
| RRIRHRPPRLPRPRPRPCPLPRP | -0.667 |
| RRIRNRPPRLPRPRPRPTVHPRP | -0.514 |
| RRIRQRPPRLPRPRPRPFAEPRP | -0.00183 |
| RRIRHRPPRLPRPRPRPQAIPRP | -0.119 |
| RRIRPRPPRLPRPRPRPIPHPRP | -0.163 |
| RRIRHRPPRLPRPRPRPWWDPRP | -0.0461 |
| RRIRRRPPRLPRPRPRPDEFPRP | 0.138 |
| RRIRSRPPRLPRPRPRPCAIPRP | -0.475 |
| RRIRIRPPRLPRPRPRPETWPRP | 0.142 |

| Sequence | shrunken log2 fold change |
| --- | --- |
| RRIRHRPPRLPRPRPRPGFGPRP | 0.384 |
| RRIRLRPPRLPRPRPRPEFQPRP | -0.0134 |
| RRIRDRPPRLPRPRPRPMREPRP | -0.0167 |
| RRIRNRPPRLPRPRPRPHWAPRP | 0.13 |
| RRIRVRPPRLPRPRPRPKGCPRP | 0.015 |
| RRIRARPPRLPRPRPRPMYCPRP | 0.0455 |
| RRIRARPPRLPRPRPRPILMPRP | 0.143 |
| RRIRIRPPRLPRPRPRPMWNPRP | -0.472 |
| RRIRHRPPRLPRPRPRPLGQPRP | 0.0866 |
| RRIRKRPPRLPRPRPRPHWFPRP | 0.096 |
| RRIRLRPPRLPRPRPRPYSNPRP | -0.212 |
| RRIRWRPPRLPRPRPRPPAAPRP | 0.913 |
| RRIRQRPPRLPRPRPRPTMRPRP | 0.86 |
| RRIRTRPPRLPRPRPRPGNDPRP | -0.219 |
| RRIRCRPPRLPRPRPRPEPWPRP | 0.634 |
| RRIRIRPPRLPRPRPRPLEWPRP | -0.0139 |
| RRIRRRPPRLPRPRPRPHANPRP | 0.275 |
| RRIRDRPPRLPRPRPRPSFWPRP | 0.585 |
| RRIRTRPPRLPRPRPRPTNCPRP | 0.216 |
| RRIRNRPPRLPRPRPRPWFNPRP | -0.448 |
| RRIRHRPPRLPRPRPRPPDNPRP | -0.0231 |
| RRIRLRPPRLPRPRPRPNPMPRP | 0.0102 |
| RRIRYRPPRLPRPRPRPVALPRP | -0.404 |
| RRIRLRPPRLPRPRPRPAETPRP | 0.0382 |
| RRIRWRPPRLPRPRPRPVTSPRP | 0.112 |

| Sequence | shrunken log2 fold change |
| --- | --- |
| RRIRIRPPRLPRPRPRPRFPPRP | 0.0241 |
| RRIRCRPPRLPRPRPRPCMSPRP | -0.185 |
| RRIRHRPPRLPRPRPRPCIGPRP | -0.58 |
| RRIRNRPPRLPRPRPRPCTPPRP | -0.3 |
| RRIRRRPPRLPRPRPRPWTIPRP | -0.189 |
| RRIRCRPPRLPRPRPRPPAGPRP | 0.79 |
| RRIRLRPPRLPRPRPRPNCVPRP | 0.138 |
| RRIRNRPPRLPRPRPRPIGRPRP | -0.0141 |
| RRIRPRPPRLPRPRPRPMRVPRP | 0.998 |
| RRIRSRPPRLPRPRPRPWVVPRP | -0.00703 |
| RRIRIRPPRLPRPRPRPTDVPRP | -0.444 |
| RRIRWRPPRLPRPRPRPESIPRP | 0.2 |
| RRIRWRPPRLPRPRPRPSCQPRP | 0.232 |
| RRIRWRPPRLPRPRPRPGPIPRP | 0.171 |
| RRIRHRPPRLPRPRPRPSYMPRP | -0.00144 |
| RRIRTRPPRLPRPRPRPTPSPRP | 0.563 |
| RRIRERPPRLPRPRPRPLCWPRP | -0.0772 |
| RRIRRRPPRLPRPRPRPNLYPRP | -0.0246 |
| RRIRKRPPRLPRPRPRPLTKPRP | 0.457 |
| RRIRKRPPRLPRPRPRPTDWPRP | 0.169 |
| RRIRPRPPRLPRPRPRPWFAPRP | -0.116 |
| RRIRFRPPRLPRPRPRPIKPPRP | -0.4 |
| RRIRGRPPRLPRPRPRPSLDPRP | 0.607 |
| RRIRSRPPRLPRPRPRPGTMPRP | -0.315 |
| RRIRTRPPRLPRPRPRPSYWPRP | -0.153 |
